These results are taken from patent US20090280128A1 (SBI BIOTECH, published 2009).

Changes are numbered by the printed parent chain.

Test [1] deals with T1, human ILT7 expressed on human IPCs (interferon producing cells, BDCA-2 positive cells of peripheral blood … (human, UniProt P59901 17-499)).
T1 construct: Natural protein on primary human cells; GenBank NM-012276 is printed for the cDNA; also called immunoglobulin-like transcript-7; ILT7 molecules expressed on human IPCs
Nature of the test: flow cytometry on human lymphocytes, with anti-CD123 antibody. (In general: Flow cytometry measures light scatter and fluorescence of single cells or particles in a stream.)

In test [2] the target is ILT3 (on 293T cells, from pcDNA4.1-ILT3) (Homo sapiens (Human), UniProt Q8NHJ6 22-448). Nature of the test: flow cytometry on 293T cells co-transfected with C-FLAG ILT1, ILT2, ILT3 and Myc-FcRγ.
Test [3] deals with T2, C-FLAG ILT1 (human ILT1 with a FLAG tag at the C terminus, on 293T cells) (human, UniProt Q8N149 24-483).
T2 construct: Cloned from a human tonsil cDNA library; also called pME18X-C-FLAGILT1; pME18X-C-FLAG ILT1
The test is described as above.

For test [4], the target named is ILT2 (on 293T cells, from pcDNA4.1-ILT2) (Homo sapiens (Human), UniProt Q8NHL6 24-650). The description is as above.
The target in test [5] is T3, C-FLAG ILT7 (human ILT7 with FLAG tag at the C terminus, co-expressed with Myc-FcRγ) (human, UniProt P59901 17-499).
T3 construct: also called pME18X-C-FLAG ILT7; pcDNA3.1-C-FLAG ILT7
The experiment in a line: flow cytometry of hybridoma supernatant on 293T cells transfected with C-FLAG ILT7 and Myc-FcRγ.

The target in test [6] is T4, N-FLAG ILT7 (human ILT7 with FLAG tag attached to the N terminus, co-expressed with Myc-FcRγ on 293T cells) (human, UniProt P59901 17-499).
T4 construct: also called pME18X-N-FLAG ILT7; ILT7 molecules with a FLAG tag
The experiment in a line: flow cytometry on 293T cells co-expressing N-FLAG ILT7 and Myc-FcRγ.

For test [7], the target named is T3, C-FLAG ILT7 (human ILT7 with FLAG tag …). The experiment in a line: cell-based or functional assay.
Test [8] deals with T1, human ILT7 expressed on human IPCs …. The experiment in a line: flow cytometry as in B of Example 2 (human peripheral blood lymphocytes, BDCA-2 positive cells).
Test [9] has the same target. Nature of the test: flow cytometry, multiple staining of human peripheral blood lymphocytes (Lineage-1, CD123, BDCA-2).

T3 sequence (P59901 other isoform, or with tags, fused parts or gaps): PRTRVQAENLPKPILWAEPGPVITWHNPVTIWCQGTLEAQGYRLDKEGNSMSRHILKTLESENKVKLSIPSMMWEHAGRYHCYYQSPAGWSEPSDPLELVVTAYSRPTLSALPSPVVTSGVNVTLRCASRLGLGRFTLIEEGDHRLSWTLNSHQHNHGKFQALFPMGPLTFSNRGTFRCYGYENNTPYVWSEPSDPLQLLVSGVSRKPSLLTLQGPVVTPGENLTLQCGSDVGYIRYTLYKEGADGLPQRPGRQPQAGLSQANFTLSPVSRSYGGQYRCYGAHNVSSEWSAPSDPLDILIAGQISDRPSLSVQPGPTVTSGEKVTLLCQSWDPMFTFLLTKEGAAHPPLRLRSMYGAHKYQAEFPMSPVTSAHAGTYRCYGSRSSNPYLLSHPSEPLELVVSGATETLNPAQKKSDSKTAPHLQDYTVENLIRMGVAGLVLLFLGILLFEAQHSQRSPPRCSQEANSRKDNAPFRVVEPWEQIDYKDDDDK
T1 sequence (P59901 other isoform, or with tags, fused parts or gaps): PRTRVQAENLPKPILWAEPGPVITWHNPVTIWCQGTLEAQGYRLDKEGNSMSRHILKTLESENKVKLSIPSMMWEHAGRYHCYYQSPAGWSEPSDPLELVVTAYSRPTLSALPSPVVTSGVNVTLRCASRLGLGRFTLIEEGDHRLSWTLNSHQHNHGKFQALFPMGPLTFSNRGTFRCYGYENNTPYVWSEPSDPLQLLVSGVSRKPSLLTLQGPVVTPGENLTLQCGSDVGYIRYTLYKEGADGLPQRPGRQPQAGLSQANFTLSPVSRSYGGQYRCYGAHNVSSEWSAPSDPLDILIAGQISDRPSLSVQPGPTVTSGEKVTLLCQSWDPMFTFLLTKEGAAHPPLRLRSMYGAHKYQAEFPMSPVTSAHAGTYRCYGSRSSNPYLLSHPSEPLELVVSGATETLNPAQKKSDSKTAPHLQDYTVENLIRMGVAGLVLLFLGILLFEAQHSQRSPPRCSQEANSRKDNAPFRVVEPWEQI
ILT2 (on 293T cells, from pcDNA4.1-ILT2), sequence (Q8NHL6 other isoform, or with tags, fused parts or gaps limits assumed): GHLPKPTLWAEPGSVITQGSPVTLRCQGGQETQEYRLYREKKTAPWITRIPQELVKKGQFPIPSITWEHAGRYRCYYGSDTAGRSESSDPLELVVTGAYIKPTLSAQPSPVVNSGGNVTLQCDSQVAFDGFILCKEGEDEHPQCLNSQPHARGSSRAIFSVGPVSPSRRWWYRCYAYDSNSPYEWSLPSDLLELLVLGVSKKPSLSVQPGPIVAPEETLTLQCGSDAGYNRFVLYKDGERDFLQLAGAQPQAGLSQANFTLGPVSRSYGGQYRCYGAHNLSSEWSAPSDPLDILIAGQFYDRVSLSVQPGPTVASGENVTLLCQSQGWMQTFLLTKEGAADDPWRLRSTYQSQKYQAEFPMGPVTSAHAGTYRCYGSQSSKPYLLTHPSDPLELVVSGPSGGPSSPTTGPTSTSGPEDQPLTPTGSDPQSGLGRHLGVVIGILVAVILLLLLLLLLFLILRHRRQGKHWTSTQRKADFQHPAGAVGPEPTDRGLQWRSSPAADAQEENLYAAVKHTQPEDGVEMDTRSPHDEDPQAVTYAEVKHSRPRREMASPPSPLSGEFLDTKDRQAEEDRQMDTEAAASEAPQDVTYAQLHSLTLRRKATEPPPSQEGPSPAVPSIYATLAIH
T2 sequence (Q8N149 other isoform, or with tags, fused parts or gaps limits assumed): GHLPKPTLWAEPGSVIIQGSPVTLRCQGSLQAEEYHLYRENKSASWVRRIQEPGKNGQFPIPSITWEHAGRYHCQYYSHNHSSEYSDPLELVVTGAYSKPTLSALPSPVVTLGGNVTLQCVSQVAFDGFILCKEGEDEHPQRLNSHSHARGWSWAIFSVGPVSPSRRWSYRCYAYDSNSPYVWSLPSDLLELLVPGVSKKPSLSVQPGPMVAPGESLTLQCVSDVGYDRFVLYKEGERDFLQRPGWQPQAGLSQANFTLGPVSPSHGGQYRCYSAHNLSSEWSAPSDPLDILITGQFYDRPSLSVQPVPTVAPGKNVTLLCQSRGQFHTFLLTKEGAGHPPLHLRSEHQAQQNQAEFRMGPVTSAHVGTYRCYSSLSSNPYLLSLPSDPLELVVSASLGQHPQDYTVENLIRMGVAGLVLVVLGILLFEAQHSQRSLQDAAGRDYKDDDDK
ILT3 (on 293T cells, from pcDNA4.1-ILT3), sequence (Q8NHJ6 22-448 D223G/Q414R limits assumed): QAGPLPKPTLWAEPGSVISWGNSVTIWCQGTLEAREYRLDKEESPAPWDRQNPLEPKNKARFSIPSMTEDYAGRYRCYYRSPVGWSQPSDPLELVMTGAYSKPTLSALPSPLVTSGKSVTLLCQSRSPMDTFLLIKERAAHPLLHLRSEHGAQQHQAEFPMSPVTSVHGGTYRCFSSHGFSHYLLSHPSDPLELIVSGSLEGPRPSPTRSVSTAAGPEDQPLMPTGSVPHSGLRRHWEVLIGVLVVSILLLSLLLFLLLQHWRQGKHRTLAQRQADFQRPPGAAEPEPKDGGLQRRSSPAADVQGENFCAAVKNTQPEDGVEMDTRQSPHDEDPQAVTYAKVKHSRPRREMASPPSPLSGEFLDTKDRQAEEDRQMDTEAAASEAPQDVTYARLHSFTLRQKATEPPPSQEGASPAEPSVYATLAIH
T4 sequence (P59901 other isoform, or with tags, fused parts or gaps): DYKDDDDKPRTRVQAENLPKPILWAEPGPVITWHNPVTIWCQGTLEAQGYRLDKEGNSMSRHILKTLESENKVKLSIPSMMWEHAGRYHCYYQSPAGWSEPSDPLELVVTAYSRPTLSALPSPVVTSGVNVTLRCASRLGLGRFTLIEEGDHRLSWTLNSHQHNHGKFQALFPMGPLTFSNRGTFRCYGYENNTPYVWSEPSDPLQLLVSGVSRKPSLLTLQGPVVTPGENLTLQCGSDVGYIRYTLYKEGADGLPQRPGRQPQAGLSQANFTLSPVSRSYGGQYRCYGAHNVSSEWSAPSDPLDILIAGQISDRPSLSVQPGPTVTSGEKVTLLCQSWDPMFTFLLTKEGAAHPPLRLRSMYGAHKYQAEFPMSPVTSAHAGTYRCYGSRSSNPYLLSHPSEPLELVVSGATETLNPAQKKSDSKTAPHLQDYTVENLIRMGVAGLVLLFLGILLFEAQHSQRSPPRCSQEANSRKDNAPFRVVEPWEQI

B1: anti-ILT7 antibody #11 (mouse anti-human ILT7 monoclonal antibody produced by hybridoma #11, FERM BP-10704) (antibody, V domains shown)
VH: DVQLQESGPGLVKPSQSLSLTCTVTGYSITSDYAWNWIRQFPGNKLEWMGYISYSGSTSYNPSLKSRISITRDTSKNQFFLQLNSVTTEDTATYYCARSPPYYAMDYWGQGTSVTVSS
VL: DIVMTQSHKFMSTSVGDRVSITCKASQDVGTAVAWYQQKPGQSPKLLIYWASTRHTGVPDRFTGSGSGTDFTLTISNVQSEDLADYFCQQYSSYPLTFGAGTKLELK
notes: Mouse hybridoma antibody as tested; also called ILT7#11; anti-ILT7 antibody 411
Consider B1, for which the binding result in test [1] is on record as “binds”; in test [2] it was “no binding”; in test [3] it was “no binding”; in test [4] it was “no binding”; in test [5] it was “binds”; in test [6], “binds”.

B2: mouse anti-human ILT7 antibody #37 (monoclonal antibody produced by hybridoma #37) (antibody, V domains shown)
VH: B1 VH with S99A, P100L, Y102L, Y103P, A104W, M105F, D106A, S113L, S118A
VL: B1 VL with L96Y, A100G, L106I
notes: Mouse hybridoma antibody; also called ILT7#37; ILT7437
Turning to B2, in test [7], the “APC fluorescence intensity ratio (%), 37 °C against 4 °C (internalization on ILT7-CHO cells)” value stood at 98.2% and the “FITC fluorescence intensity ratio (%), 37 °C against 4 °C (internalization on ILT7-CHO cells)” value worked out at 55.9%. In test [8], the binding result is reported as “binds”.

B3: anti-ILT7 antibody #17 (mouse anti-human ILT7 monoclonal antibody produced by hybridoma #17, FERM BP-10705) (antibody, V domains shown)
VH: QVQLKQSGAELVRPGASVKLSCKTSGYIFTSYWIHWVKQRSGQGLEWIARIYPGTGSTYYNEKFKGKATLTADKSSSTAYMQLSSLKSEDSAVYFCARYPTYDWYFDVWGAGTTVTVSS
VL: DIVLTQSPATLSVTPGDRVSLSCRASQSISNYLHWYQQKSHESPRLLIKYASQSISGIPSRFSGSGSGTDFTLSINSVETEDFGMYFCQQSNSWPLTFGAGTKLELK
notes: Mouse hybridoma antibody as tested; also called ILT7#17
Regarding B3, in [7], the “APC fluorescence intensity ratio (%), 37 °C against 4 °C (internalization on ILT7-CHO cells)” value was 95.4%. Moreover, in [7], the “FITC fluorescence intensity ratio (%), 37 °C against 4 °C (internalization on ILT7-CHO cells)” value turned out to be 44.5%. In addition, the binding result is “no binding” in test [2], “no binding” in [3], “no binding” in test [4] and “binds” in test [9].
